Reference: doi:10.1101/2024.08.19.608714 (bioRxiv, 2024)

Molecular target: the molecule itself
Assay: cryo-EM structure

B1: human XPR1 (natural protein)
chain: MKFAEHLSAHITPEWRKQYIQYEAFKDMLYSAQDQAPSVEVTDEDTVKRYFAKFEEKFFQTCEKELAKINTFYSEKLAEAQRRFATLQNELQSSLDAQKESTGVTTLRQRRKPVFHLSHEERVQHRNIKDLKLAFSEFYLSLILLQNYQNLNFTGFRKILKKHDKILETSRGADWRVAHVEVAPFYTCKKINQLISETEAVVTNELEDGDRQKAMKRLRVPPLGAAQPAPAWTTFRVGLFCGIFIVLNITLVLAAVFKLETDRSIWPLIRIYRGGFLLIEFLFLLGINTYGWRQAGVNHVLIFELNPRSNLSHQHLFEIAGFLGILWCLSLLACFFAPISVIPTYVYPLALYGFMVFFLINPTKTFYYKSRFWLLKLLFRVFTAPFHKVGFADFWLADQLNSLSVILMDLEYMICFYSLELKWDESKGLLPNNSEESGICHKYTYGVRAIVQCIPAWLRFIQCLRRYRDTKRAFPHLVNAGKYSTTFFMVTFAALYSTHKERGHSDTMVFFYLWIVFYIISSCYTLIWDLKMDWGLFDKNAGENTFLREEIVYPQKAYYYCAIIEDVILRFAWTIQISITSTTLLPHSGDIIATVFAPLEVFRRFVWNFFRLENEHLNNCGEFRAVRDISVAPLNADDQTLLEQMMDQDDGVRNRQKNRSWKYNQSISLRRPRLASQSKARDTKVLIEDTDDEANT
**Q.** How did the “stoichiometry N” value turn out when B1 was run?
**A.** 2
